Source: publication PMC6957213

Legend:
[1] = test system: T1, GdhR (Neisseria gonorrhoeae FA19), ORF:8165ddaf; test: competition; conditions: EMSA: 12 fmol DIG-DNA in 20 uL, 20 mM Hepes pH 7.6, 1 mM EDTA, 10 mM (NH4)2SO4, 1 mM DTT, 0.2% Tween-20, 30 mM KCl, 1.25 ng/uL calf thymus DNA, 25 min, 30 C
T1 sequence: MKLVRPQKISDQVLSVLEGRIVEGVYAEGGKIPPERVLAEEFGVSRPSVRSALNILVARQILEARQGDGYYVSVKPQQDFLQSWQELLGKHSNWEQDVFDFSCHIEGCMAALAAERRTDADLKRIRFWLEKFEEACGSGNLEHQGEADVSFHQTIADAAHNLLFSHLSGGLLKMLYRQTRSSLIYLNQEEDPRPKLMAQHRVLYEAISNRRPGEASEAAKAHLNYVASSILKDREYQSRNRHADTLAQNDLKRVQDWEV

[2] = test system: T1, GdhR (Neisseria gonorrhoeae FA19), ORF:8165ddaf; test: EMSA; conditions: EMSA: 12 fmol DIG-DNA in 20 uL, 20 mM Hepes pH 7.6, 1 mM EDTA, 10 mM (NH4)2SO4, 1 mM DTT, 0.2% Tween-20, 30 mM KCl, 1.25 ng/uL calf thymus DNA, 25 min, 30 C

With “CGTAGGGTGCGAGCGTTAATCGGAATTACTGGGCGTAAAGCGGGCGCAGACGGTTACTTAAGCAGGATGTGAAATCCCCGGGCTCAACCCGGGAACTGCGTTCTGAACTGGGTGACTCGAGTGTGTCAGAGGGAGGTGGAATTCCACGTGTAGCAGTGAAATGCGTAGAGATGTGGAGGAATACCGATGG (double strand) [16S rRNA gene fragment]” the binding [1] was “no binding”.

“GTGGACGGGGACGGCGCGGTATTCGTGCCGCCGGAAGAATGCTGAAAATGCCGTCTGAAGCCTTTCGGGCGGCTTTTTCTACACGCCCCTTTCCCACACTCCCTCCGCCGCATCATCACCATCCTTAACCCGCATTAATAGCCATTATCGATAAAATGCTTGACCGATTACATAAGATTACGTAAAGTGTGCAAACGCATAATAATTGGTCTTACCAATTTATCTTTTAACCAAAATATCGGGTGTGCGGGATTTGAACGTCTTTCCAAACCTCGACGCGCCTTATGATGC (double strand) [lctP promoter, unlabeled competitor]” was tested, and the binding [1] was “binds”.

For “GTGGACGGGGACGGCGCGGTATTCGTGCCGCCGGAAGAATGCTGAAAATGCCGTCTGAAGCCTTTCGGGCGGCTTTTTCTACACGCCCCTTTCCCACACTCCCTCCGCCGCATCATCACCATCCTTAACCCGCATTAATAGCCATTATCGATAAAATGCTTGACCGATTACATAAGATTACGTAAAGTGTGCAAACGCATATCTTTTAACCAAAATATCGGGTGTGCGGGATTTGAACGTCTTTCCAAACCTCGACGCGCCTTATGATGC (double strand) [lctPΔFadR EMSA probe]”, the binding [2] was “binds more weakly”.
